Assays:
SPP3b = biological target: T1, SPP3b (Arabidopsis thaliana, UniProt Q93XN8); assay: inhibition of Pi release from Suc6P (SnCl2-molybdate); format: biochemical
T1 construct: about 52 kDa subunit, about 90 kDa dimer; cDNA from RIKEN
T1 sequence (Q93XN8 1-423): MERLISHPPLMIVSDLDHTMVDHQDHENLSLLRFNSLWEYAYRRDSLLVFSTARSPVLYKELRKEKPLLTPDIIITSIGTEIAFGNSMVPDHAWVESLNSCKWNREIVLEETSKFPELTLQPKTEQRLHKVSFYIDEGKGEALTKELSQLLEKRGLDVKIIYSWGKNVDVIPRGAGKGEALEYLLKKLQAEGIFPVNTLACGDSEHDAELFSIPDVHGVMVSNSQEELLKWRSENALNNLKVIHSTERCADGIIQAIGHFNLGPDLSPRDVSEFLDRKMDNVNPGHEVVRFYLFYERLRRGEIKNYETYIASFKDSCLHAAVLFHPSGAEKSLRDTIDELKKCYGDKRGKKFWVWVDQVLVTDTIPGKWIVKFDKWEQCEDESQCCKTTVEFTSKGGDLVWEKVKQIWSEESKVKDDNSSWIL

[1] = biological target: Chimeric Synechocystis SPP fused at its C-terminus to the S6PPc domain of Arabidopsis SPP2 (SynSPP+S6PPc), His-tagged, from E. coli (Synechocystis sp. PCC 6803 | Arabidopsis thaliana); assay: SEC; gel filtration of the purified His-tagged proteins; eluted fractions immunoblotted with anti-His antibodies (Fig 7, S1 Fig)
S6PP domain of SPP2 = biological target: T2, S6PP domain of SPP2 (Arabidopsis thaliana, UniProt Q9SJ66); assay: Pi release (SnCl2-molybdate), specific activity; format: biochemical; conditions: 1.25 mM Suc6P; 8 mM MgCl2, pH 7.0, 37 °C
T2 construct: N-terminal S6PP (HAD) domain only, C-terminal S6PPc domain removed; ends at ...IGHFKL by reverse primer P11; N-terminal His10 tag (pET-19b), E. coli; about 30 kDa monomer

SynSPP = biological target: T3, SynSPP (Synechocystis sp. PCC 6803, UniProt P74325); assay: Pi release (SnCl2-molybdate), specific activity; format: biochemical; conditions: 1.25 mM Suc6P; 8 mM MgCl2, pH 7.0, 37 °C
T3 construct: gene slr0953; full length, N-terminal His6 tag (pQE-80L), E. coli BL21(DE3)

[2] = biological target: the molecule itself; assay: SEC; Superose 12 10/300 GL, 25 mM HEPES-KOH pH 7.5, 150 mM KCl, 1 mM PMSF, without Mg2+, 0.4 ml/min; fractions followed by A280 and SPP activity; mass from a calibration curve of standards
[3] = substrate: O=P(O)(O)OC[C@H]1O[C@@](CO)(O[C@H]2O[C@H](CO)[C@@H](O)[C@H](O)[C@H]2O)[C@@H](O)[C@@H]1O; assay: Pi release (SnCl2-molybdate), nonlinear regression; format: biochemical, Arabidopsis thaliana; conditions: 25 mM HEPES-KOH pH 7.0, 8 mM MgCl2, 37 °C
From the text: Pi release (SnCl2-molybdate), nonlinear regression on SPP2

[4] = substrate: O=P(O)(O)OC[C@H]1O[C@@](CO)(O[C@H]2O[C@H](CO)[C@@H](O)[C@H](O)[C@H]2O)[C@@H](O)[C@@H]1O; assay: Pi release (SnCl2-molybdate), nonlinear regression; format: biochemical, Arabidopsis thaliana; conditions: 25 mM HEPES-KOH pH 7.0, 8 mM MgCl2, 37 °C; remark: listed apart in the source
From the text: Pi release (SnCl2-molybdate), nonlinear regression on SPP3a

[5] = substrate: O=P(O)(O)OC[C@H]1O[C@@](CO)(O[C@H]2O[C@H](CO)[C@@H](O)[C@H](O)[C@H]2O)[C@@H](O)[C@@H]1O; assay: Pi release (SnCl2-molybdate), nonlinear regression; format: biochemical, Arabidopsis thaliana; conditions: 25 mM HEPES-KOH pH 7.0, 8 mM MgCl2, 37 °C; remark: listed apart in the source
From the text: Pi release (SnCl2-molybdate), nonlinear regression on SPP3b

T3 sequence (P74325 entry or part of it): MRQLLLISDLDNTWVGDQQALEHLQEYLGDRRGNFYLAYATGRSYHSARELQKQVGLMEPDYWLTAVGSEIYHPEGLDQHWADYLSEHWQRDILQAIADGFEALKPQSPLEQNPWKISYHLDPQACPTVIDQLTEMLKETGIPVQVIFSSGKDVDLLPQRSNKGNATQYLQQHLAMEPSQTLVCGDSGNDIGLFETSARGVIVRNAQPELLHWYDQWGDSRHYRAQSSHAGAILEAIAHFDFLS

OC[C@H]1O[C@@](CO)(O[C@H]2O[C@H](CO)[C@@H](O)[C@H](O)[C@H]2O)[C@@H](O)[C@@H]1O [sucrose]
Ki (SPP3b): 24 mM

Chimeric Synechocystis SPP fused at its C-terminus to the S6PPc domain of Arabidopsis SPP2 (SynSPP+S6PPc), His-tagged, from E. coli (enzyme)
stoichiometry N [1]: 2

O=P(O)(O)OC[C@H]1O[C@@](CO)(O[C@H]2O[C@H](CO)[C@@H](O)[C@H](O)[C@H]2O)[C@@H](O)[C@@H]1O [Suc6P]
Pi release (SnCl2-molybdate), specific activity (S6PP domain of SPP2): with an activity significantly lower than the native protein | Pi release (SnCl2-molybdate), specific activity (SynSPP): The activity of each protein or chimera was determined as described in Materials and Methods

B1: Arabidopsis thaliana sucrose-phosphate phosphatase isoform SPP2, recombinant Nt-Histag (His10-SPP2, pET-19b) (enzyme, UniProt Q9SJ66 1-422, looked up)
chain: MERLTSPPRLMIVSDLDHTMVDHHDPENLSLLRFNSLWEHAYRHDSLLVFSTGRSPTLYKELRKEKPLLTPDITIMSVGTEITYGNSMVPDHGWVEALNNKWDLGIVKQEASNFPELKLQAETEQRPHKVSFYVEKSKAQEVTKELSQRFLKRGLDVKIIYSGGMDLDILPQGAGKGQALAYLLKKLKTEGKLPVNTLACGDSGNDAELFSIPDVYGVMVSNAQEELLKWHAENAKDNPKVIHAKERCAGGIIQAIGHFKLGPNLSPRDVSDFLEIKVENVNPGHEVVKFFLFYERWRRGEVENSEAYTASLKASVHPGGVFVHPSGTEKSLRDTIDELRKYHGDKQGKKFRVWADQVLATDTTPGTWIVKLDKWEQDGDERRCCTTTVKFTSKEGEGLVWEHVQQTWSKETMVKDDSSWII
notes: Sucrose-phosphate phosphatase SPP2 of Arabidopsis thaliana (At2g35840); cDNA from RIKEN, amplified with primers P5 (start codon) and P6 (stop codon); also called Nt-Histag SPP2; SSP2; source: E. coli BL21 (DE3), purified (HisTrap HP, Superose 12); not shown: His10, N-terminal, kept
stoichiometry N [2]: 2 | Km [3]: 730 ± 320 µM | kcat [3]: 67.8 s⁻¹ | kcat/Km [3]: 92500 M⁻¹ s⁻¹

B2: Arabidopsis thaliana sucrose-phosphate phosphatase isoform SPP3a, recombinant Nt-Histag (His10-SPP3a, pET-19b) (enzyme, UniProt Q93WU4 1-425, looked up)
chain: MDRLEGPPRLILVADLDCTLVDHDDPENNDLLRFNALWEAHYRHDSLLVYCTGRSFSSYSSLRKKRPLLTPDIAVTSVGSEIVYGGGESTVSDVVWTARLDYKWNRDIVVEETLKFPKLEPQPDKSQEEHKVSFFVGREDAVEIMKVLPGILEERGVDVKLVYSNGYAFDVLPRGAGKQGALTYLLDKLDIEGKQPSNTLVCGDSGNDAELFNISDVYGVMVSNSHEELLQWYEENAKDNPKIFHASERCGAGMIEAIQRFNLGPNVSPRDVMDTENFHGESLNPAHEVVQFYLFYERWRCGEVEKSDKYLQNLKSLSSPLGIFVHPSGVEKPIHEWIDEMENLYGDGKEKKFRIWLDNVTSSHISSDTWLAKFVKHELSEGKVRSCSTKVLLSYKEEKQRLTWMHIHQSWLDESSSDDQEKWIF
notes: Sucrose-phosphate phosphatase SPP3a of Arabidopsis thaliana (At3g54270); amplified from rosette leaf cDNA with primers P7 (start codon) and P8 (stop codon); source: E. coli BL21 (DE3), purified (HisTrap HP, Superose 12); not shown: His10, N-terminal, kept
Km [4]: 870 ± 390 µM | kcat [4]: 0.396 s⁻¹ | kcat/Km [4]: 454 M⁻¹ s⁻¹ | stoichiometry N [2]: 2

B3: Arabidopsis thaliana sucrose-phosphate phosphatase isoform SPP3b, recombinant Nt-Histag (His10-SPP3b, pET-19b) (enzyme, UniProt Q93XN8 1-423, looked up)
chain: T1 sequence (Q93XN8 1-423)
notes: Sucrose-phosphate phosphatase SPP3b of Arabidopsis thaliana (At3g52340); cDNA from RIKEN, amplified with primers P9 (start codon) and P10 (stop codon); source: E. coli BL21 (DE3), purified (HisTrap HP, Superose 12); not shown: His10, N-terminal, kept
stoichiometry N [2]: 2 | Km [5]: 3460 ± 710 µM | kcat [5]: 3.59 s⁻¹ | kcat/Km [5]: 1040 M⁻¹ s⁻¹

From paper PMC5113954, “Characterization of the Sucrose Phosphate Phosphatase (SPP) Isoforms from Arabidopsis thaliana and Role of the S6PPc Domain in Dimerization” (PLoS ONE, 2016)
